Results on 5 substances are retold here after patent US20190359666A1.

One assay addresses nrgbx (UniProt Q02297). The assay is described as follows: cell-based or functional assay.
The target of another assay is nrgEGF (UniProt Q02297). The assay is described as follows: Biacore SPR.
In another assay the target is nrgECD (UniProt Q02297). The assay is described as follows: Biacore SPR, immobilised nrgECD. (In SPR one partner is held on a chip, and binding of the other changes the refractive index at the surface.)

IGFBP3-Fc-VEGF-ErbB4 (Fc fusion), sequence (chain): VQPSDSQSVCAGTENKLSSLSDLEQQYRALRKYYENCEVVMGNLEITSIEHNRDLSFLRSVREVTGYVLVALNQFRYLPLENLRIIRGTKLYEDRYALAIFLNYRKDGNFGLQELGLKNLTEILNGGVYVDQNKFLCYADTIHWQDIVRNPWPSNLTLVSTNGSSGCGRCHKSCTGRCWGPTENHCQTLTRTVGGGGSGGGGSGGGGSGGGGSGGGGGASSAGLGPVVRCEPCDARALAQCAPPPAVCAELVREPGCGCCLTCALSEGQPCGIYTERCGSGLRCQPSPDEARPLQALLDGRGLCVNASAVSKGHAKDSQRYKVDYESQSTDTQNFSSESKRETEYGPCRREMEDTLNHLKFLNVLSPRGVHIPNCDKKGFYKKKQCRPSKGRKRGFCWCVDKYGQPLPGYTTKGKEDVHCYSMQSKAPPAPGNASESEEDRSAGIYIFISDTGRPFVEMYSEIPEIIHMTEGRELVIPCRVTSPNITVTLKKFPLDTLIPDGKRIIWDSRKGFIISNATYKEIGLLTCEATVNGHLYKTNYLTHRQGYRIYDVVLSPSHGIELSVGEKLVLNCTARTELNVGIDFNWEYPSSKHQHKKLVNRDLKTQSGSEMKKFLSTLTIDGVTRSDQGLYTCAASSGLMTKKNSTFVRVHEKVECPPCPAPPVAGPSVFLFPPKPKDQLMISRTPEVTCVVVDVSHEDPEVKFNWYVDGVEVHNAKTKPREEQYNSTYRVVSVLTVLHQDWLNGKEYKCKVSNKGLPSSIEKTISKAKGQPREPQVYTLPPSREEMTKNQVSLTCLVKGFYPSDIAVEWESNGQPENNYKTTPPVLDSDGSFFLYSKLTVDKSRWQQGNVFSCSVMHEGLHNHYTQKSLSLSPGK
IGFBP3-Fc-ErbB4 (Fc fusion), sequence (chain): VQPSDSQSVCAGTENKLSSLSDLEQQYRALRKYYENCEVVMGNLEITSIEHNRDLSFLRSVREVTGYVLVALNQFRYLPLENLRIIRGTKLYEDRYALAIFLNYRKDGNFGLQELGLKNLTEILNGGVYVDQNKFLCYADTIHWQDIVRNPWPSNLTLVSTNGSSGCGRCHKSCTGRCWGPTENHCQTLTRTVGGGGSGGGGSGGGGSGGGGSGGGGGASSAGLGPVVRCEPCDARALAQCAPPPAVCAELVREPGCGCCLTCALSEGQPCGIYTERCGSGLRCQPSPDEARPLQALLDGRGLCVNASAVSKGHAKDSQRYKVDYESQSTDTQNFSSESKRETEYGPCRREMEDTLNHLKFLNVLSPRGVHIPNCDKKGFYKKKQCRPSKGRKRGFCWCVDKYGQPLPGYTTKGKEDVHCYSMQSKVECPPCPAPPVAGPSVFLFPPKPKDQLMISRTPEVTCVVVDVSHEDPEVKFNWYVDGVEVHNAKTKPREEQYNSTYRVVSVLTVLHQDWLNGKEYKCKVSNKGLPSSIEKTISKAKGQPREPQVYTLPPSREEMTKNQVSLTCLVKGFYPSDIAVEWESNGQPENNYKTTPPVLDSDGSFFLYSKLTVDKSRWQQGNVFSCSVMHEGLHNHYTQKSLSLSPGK
nrgbx, sequence (Q02297 other isoform, or with tags, fused parts or gaps limits assumed): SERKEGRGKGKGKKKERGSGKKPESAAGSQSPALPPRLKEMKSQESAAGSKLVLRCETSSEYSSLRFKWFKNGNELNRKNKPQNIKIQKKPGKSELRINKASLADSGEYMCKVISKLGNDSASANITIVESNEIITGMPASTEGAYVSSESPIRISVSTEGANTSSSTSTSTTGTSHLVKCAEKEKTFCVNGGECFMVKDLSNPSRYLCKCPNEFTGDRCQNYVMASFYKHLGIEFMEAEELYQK
IGFBP3-Fc (Fc fusion), sequence (chain): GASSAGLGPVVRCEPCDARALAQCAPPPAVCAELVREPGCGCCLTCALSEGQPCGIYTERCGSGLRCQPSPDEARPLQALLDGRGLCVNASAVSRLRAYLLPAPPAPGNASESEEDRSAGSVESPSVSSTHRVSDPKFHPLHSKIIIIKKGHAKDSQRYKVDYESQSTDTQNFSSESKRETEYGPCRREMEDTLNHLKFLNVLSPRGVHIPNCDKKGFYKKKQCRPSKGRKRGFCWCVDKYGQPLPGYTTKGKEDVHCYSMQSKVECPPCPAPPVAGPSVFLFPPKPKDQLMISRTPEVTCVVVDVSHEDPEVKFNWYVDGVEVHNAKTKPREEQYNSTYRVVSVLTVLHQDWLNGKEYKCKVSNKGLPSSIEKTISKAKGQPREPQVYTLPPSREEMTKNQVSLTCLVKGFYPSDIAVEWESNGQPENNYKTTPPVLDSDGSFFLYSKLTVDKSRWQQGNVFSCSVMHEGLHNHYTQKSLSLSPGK
IGFBP3-Fc-VEGF (Fc fusion), sequence (chain): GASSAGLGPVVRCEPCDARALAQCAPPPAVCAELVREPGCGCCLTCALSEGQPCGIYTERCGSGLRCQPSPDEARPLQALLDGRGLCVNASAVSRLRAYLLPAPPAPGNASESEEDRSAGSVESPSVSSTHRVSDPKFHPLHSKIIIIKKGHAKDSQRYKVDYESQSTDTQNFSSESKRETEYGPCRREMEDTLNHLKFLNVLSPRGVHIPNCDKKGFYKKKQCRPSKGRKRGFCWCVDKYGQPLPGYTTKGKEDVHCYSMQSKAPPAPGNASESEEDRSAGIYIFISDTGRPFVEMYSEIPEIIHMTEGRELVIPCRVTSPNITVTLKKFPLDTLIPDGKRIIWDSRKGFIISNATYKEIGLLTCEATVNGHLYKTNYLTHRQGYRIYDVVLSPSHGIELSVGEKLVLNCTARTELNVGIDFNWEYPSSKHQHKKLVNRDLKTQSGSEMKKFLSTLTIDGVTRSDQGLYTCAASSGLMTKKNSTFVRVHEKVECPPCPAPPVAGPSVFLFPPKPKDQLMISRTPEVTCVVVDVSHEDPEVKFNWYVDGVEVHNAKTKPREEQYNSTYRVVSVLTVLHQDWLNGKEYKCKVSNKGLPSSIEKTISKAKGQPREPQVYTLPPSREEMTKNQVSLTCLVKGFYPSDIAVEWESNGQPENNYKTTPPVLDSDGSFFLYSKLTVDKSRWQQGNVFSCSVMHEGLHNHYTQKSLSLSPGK

In the assay with nrgbx, chimera erbB4-A (Fc fusion) gave an IC50 in inhibiting neuregulin-induced proliferation of 14 nM.

Take IGFBP3-Fc-ErbB4 (Fc fusion): the figures for the Kd with nrgEGF and in the assay with nrgECD were 6 nM and 0.004 nM, respectively. Substance IGFBP3-Fc (Fc fusion) gave a Kd in the assay with nrgECD of 5.3 nM. In the case of IGFBP3-Fc-VEGF-ErbB4 (Fc fusion), the values for the dissociation constant Kd in the assay with nrgEGF and with nrgECD were 11 nM and 0.00011 nM, respectively. IGFBP3-Fc-VEGF (Fc fusion) showed a Kd in the assay with nrgECD of 0.18 nM.

As a reminder, the Kd is the free concentration of one partner at which half of the binding sites on the other are occupied at equilibrium, for simple one-to-one binding. High values mean lower affinity, low ones higher affinity.
